According to PMC12861478, “Amino acid transporter CsBAT links GABA accumulation to flavonoid metabolism in Camellia sinensis” (Horticulture Research, 2025):

Key:
Experiment in all cases: cells, lysate or membranes
[1] = substrate: CCNC(=O)CC[C@H](N)C(=O)O; details: transport; nitrogen-starved cells in nitrogen-free YNB
[2] = substrate: NC(=O)CC[C@H](N)C(=O)O; details: transport; nitrogen-starved cells in nitrogen-free YNB
[3] = substrate: NCCCC(=O)O; details: transport; nitrogen-starved cells in nitrogen-free YNB; 0.09375–8 mM GABA; H+-dependent
[4] = substrate: N[C@@H](CCC(=O)O)C(=O)O; details: transport; nitrogen-starved cells in nitrogen-free YNB

B1: CsBAT (Camellia sinensis) (protein)
chain: MGWHSHSHVQNGDSSLDTGHTRLHELGYKQELKRDLSVVSNFAFSFSIISVLTGITTLYNTGLNYGGPVVLVYGWLIAGVFTMIVGLSMAEICSSYPTSGGLYYWSAKLAGPSWAPFASWLTGWFNIVGQWAVTTSVDFSLAQLIQVIILLSTGGKNGGGYQASKYVVIGIHGGILLLHAIINSLPITWLSLFGQFAALWNLIGVFVLMILIPTVAKEKASAKFVFTFFNTDNGDGINSKVYIFVLGLLMSQYTLTGYDASAHMTEETKSADKNGPKGIISAIGISVIVGWGYLLGVTFAVTKIPNLLSENNDAGGYAIAEVFYLAFKNRYGNGIGGIICLGVVAVAIFFCGMSSITSNSRMAYAFSRDGAMPLSSVWHKVNKHEVPLNAVWLSAIIAFCMALTSLGSIVAFQAMVSIATIGLYIAYALPIFFRVTLARKSFTPGPFNLGRYGVLVGWIAVLWVATISVLFSLPVSYPITDQTLNYTPVAVGGLLILTVASWIFSARHWFKGPITNIDDVL
**Q.** With B1 as the protein, how does the Km [1] read?
**A.** 360 ± 30 µM

**Q.** And the Km [2]?
**A.** 400 ± 40 µM

**Q.** What about the Km [3] of the same protein?
**A.** 290 ± 20 µM

**Q.** And the Km [4]?
**A.** 580 ± 50 µM
